Source: article PMC4522201

Molecular target: CEP-HSA (2-(ω-carboxyethyl)pyrrole derivative of HSA) (human) (UniProt P02768)
Test: SPR

Kd [nM]	Substance
6.53	CD36-Fc chimera (from UniProt P16671 1-472) (Fc fusion)
11.8	TLR2-Fc chimera (from UniProt O60603 21-588) (Fc fusion)
